Like-named read-outs stand apart in the source and are kept apart here.
B1: AADC-IKVAV: aromatic-L-amino-acid decarboxylase (AADC) protein fused with short peptide IKVAV (SEQ ID NO: 23); CDS SEQ ID NO: 21 (protein)
chain: MRGSHHHHHHGMASMTGGQQMGRDLYDDDDKDPMNASEFRRRGKEMVDYMANYMEGIEGRQVYPDVEPGYLRPLIPAAAPQEPDTFEDIINDVEKIIMPGVTHWHSPYFFAYFPTASSYPAMLADMLCGAIGCIGFSWAASPACTELETVMMDWLGKMLELPKAFLNEKAGEGGGVIQGSASEATLVALLAARTKVIHRLQAASPELTQAAIMEKLVAYSSDQAHSSVERAGLIGGVKLKAIPSDGNFAMRASALQEALERDKAAGLIPFFMVATLGTTTCCSFDNLLEVGPICNKEDIWLHVDAAYAGSAFICPEFRHLLNGVEFADSFNFNPHKWLLVNFDCSAMWVKKRTDLTGAFRLDPTYLKHSHQDSGLITDYRHWQIPLGRRFRSLKMWFVFRMYGVKGLQAYIRKHVQLSHEFESLVRQDPRFEICVEVILGLVCFRLKGSNKVNEALLQRINSAKKIHLVPCHLRDKFVLRFAICSRTVESAHVQRAWEHIKELAADVLRAEREGGSGSSGGSGGSGGSGIKVAV
modifications: misc_feature 1..1602 Synthetic: AADC-IKVAV

Test system: dopamine receptor D1+ or D2+ expressing cells in the CPu
Assay type: in vivo, mouse
Description: c-Fos activation with engineered AADC—Three groups of mice underwent FUS-BBBO procedure to target a single site at left striatum immediately after intravenous injection of recombinant protein AADC-IKVAV (SEQ ID NO: 23) (20 mg/mL, 250 mg/kg) or equivalent volume of PBS buffer (n=5 mice for FUS alone+L-DOPA group). After 48 h, the mice were given a single dose of L-DOPA (0.1 mg/mL, 2 mg/kg, i.p.; Spectrum Chemical) 10 min after injection of carbidopa (1 mg/mL, 25 mg/kg, i.p.; Sigma-Aldrich), both of which were dissolved in sterile saline containing 2.5 and 0.125 mg/mL ascorbic acid. […] After 2 hours, the mice were euthanized by transcardial perfusion, and their brains were extracted and sliced into 50 μm coronal sections following 24-48 hours of fixation.
The section displaying the strongest AADC fluorescence was selected as the representative for each mouse, and its adjacent section was stained separately to identify c-Fos and dopamine receptor D1 and D2 positive cells. The procedure was carried out as follows: (1) block sections in 10% normal goat serum (SouthernBiotech) and 0.3% Triton-X solution in PBS for 1 h at room temperature; (2) incubate with primary rabbit anti-c-Fos (1:2000, 2250S, Cell Signaling Technology) antibody in PBS with 0.3% Triton-X for 2 h at room temperature; (3) after washing three times in PBS (15 min each, the same as below), incubate with primary rat anti-D1 Dopamine Receptor (1:500, D2944, MilliporeSigma) and Guinea pig anti-Dopamine Receptor D2 (1:500, Cat. #376 205, Synaptic Systems) antibodies in 5% normal goat serum and 0.3% Triton-X solution in PBS overnight at 4° C.; (4) after washing three times, incubate with secondary goat anti-rabbit antibody conjugated to Alexa Fluor 647 (1:500, A-21245, ThermoFisher) in PBS with 0.3% Triton-X for 2 h at room temperature; (5) after washing three times, incubate with secondary goat anti-rat antibody conjugated to Alexa Fluor 546 (1:500, A-11081, ThermoFisher) and goat anti-Guinea Pig antibody conjugated to Alexa Fluor 488 (1:500, A-11073, ThermoFisher) in 5% normal goat serum and 0.3% Triton-X solution in PBS for 2 h at room temperature; (6) after washing three times, mount sections onto glass slides using the mounting media (Vector Laboratories) with DAPI and air-dry overnight in dark before imaging.
Within the left striatum region, a specific 5×9 binned rectangle area was selected corresponding to the highest observed AADC fluorescence in the adjacent AADC-stained section. Subsequently, images were captured of these areas using a 40× objective. The corresponding contralateral areas in the right striatum were also imaged.
In FIG. 7, we applied the following brightness (white) thresholds for the corresponding channels: 6045 (DAPI, nuclei, not shown), 15,000 (Cy3, D1R), 16,000 (green, D2R), and 6045 (far-red, c-Fos), with a gamma value of 1. In FIG. 11, we applied a Brightness (White) threshold of 6045 for both DAPI (nuclei, not shown) and far-red (c-Fos) channels, with a Gamma value of 1. The images were then overlayed, and the c-Fos+ cells were manually counted. Similarly, the GFAP+ cells were manually counted, as shown in FIG. 15c and FIG. 17, by applying a Brightness (White) threshold of 5686 and a Gamma value of 1 for both the DAPI (nuclei) and far-red (GFAP, purple) channels.
To manually count the c-Fos-positive cells in FIG. 7, three scorers (Z. H., S. N., and R. J.) independently assessed all c-Fos staining sites. R. J. served as the blinded scorer, and the averaged counts from all three scorers were rounded for the final statistical analysis.

| Molecule | c-Fos+ cells expressing D1+ or D2+, FUS-targeted region vs contralateral site (FUS alone + L-DOPA 2 mg/kg i.p., no enzyme) | c-Fos+ cells with no expression of D1+ or D2+ in vicinity of CPu, FUS-targeted vs contralateral (FUS-BBBO only without AADC-IKVAV (FUS alone+L-DOPA)) | c-Fos+ cells expressing D1+ or D2+, FUS-targeted region vs contralateral site (FUS+AADC-IKVAV 250 mg/kg i.v., L-DOPA 2 mg/kg i.p. after 48 h, perfused 2 h later) | c-Fos+ cells with no expression of D1+ or D2+ in vicinity of CPu, FUS-targeted vs contralateral (FUS+AADC-IKVAV alone) | c-Fos+ cells expressing D1+ or D2+, FUS-targeted region vs contralateral site (FUS+AADC-IKVAV without L-DOPA) | c-Fos+ cells with no expression of D1+ or D2+ in vicinity of CPu, FUS-targeted vs contralateral (FUS+AADC-IKVAV+L-DOPA) |
| --- | --- | --- | --- | --- | --- | --- |
| N[C@@H](Cc1ccc(O)c(O)c1)C(=O)O [L-DOPA, reference compound] | No significant change | no significant changes |  |  |  |  |
| B1 |  |  | 6.6 (±1.7) fold | no statistically significant changes | No significant change | no statistically significant changes |

Reference: patent publication US20250195629A1, “SITE-SPECIFIC BRAIN THERAPEUTICS” (William Marsh Rice University, priority 2023, published 2025)
